Publication doi:10.1101/2025.01.28.635353, “DyAb: sequence-based antibody design and property prediction in a low-data regime” (bioRxiv, 2025)
Where a chain is given by its changes, count along the chain named.

Target: T1, EGFR (Homo sapiens, isoform 1 (assumed), UniProt P00533)
T1 construct: EGFR, the target antigen injected in SPR
Test: SPR; antibody captured on a Protein A chip, target antigen injected 5 min, dissociation 10 min at 30 µL/min; multi-cycle mode; 37 degC; HBS-EP+ (10 mM Hepes pH 7.4, 150 mM NaCl, 0.3 mM EDTA, 0.05% Surfactant P20); 1:1 Langmuir fit; absolute affinities of the leads are medians across all experimental rounds
Settings: both partners purified

B1: anti-EGFR lead (antibody, V domains shown)
VH: EVKLQQSGDETMRPGASVRMSCKAYGYTFTDYSVHWIRQRPGQGLEWIGIIIPLIDTTRYNQKFKGKAVLTADTSSDTAYMELSRLTFEDSAVYYCARSYGSSGDDWFAYWGQGTLVTVSS
VL: DTVLTQSPALSVSPGERVDISCRASESVSTLLHWYQQKPGQQPTLLISLASSLESGVPARFSGSGSGTDFTLTIDPVEADDTAIYYCQESWNEPYAFGAGTKLELK
notes: the Fab of this antibody was crystallised and deposited as PDB 9MU1 (heavy chain); the Fab of this antibody was crystallised and deposited as PDB 9MU1 (light chain); The methods tell the production (Expi293, purified) only of the DyAb designs; The Fab for the crystal was made in CHO cells; also called aEGFR lead; starting point lead candidate
- Kd: 3 nM

B2: aEGFR-R1-1 (antibody, V domains shown)
VH: B1 VH with V34M, V69T, G101D, S102P
VL: B1 VL
notes: the Fab was crystallised and deposited as PDB 9MSW (heavy chain); as the heavy chain of m1 with four mutations across CDR-H1, CDR-H3 and the framework (Kabat numbering); the Fab was crystallised and deposited as PDB 9MSW (light chain); The Fab for the crystal was made in CHO cells; also called R1-1 design; DyAb design aEGFR-R1-1; source: Expi293, transiently expressed, purified from supernatant
- binding result: binds
